Data from patent publication US11957716B2 (Immatics Biotechnologies GmbH, priority 2021, dated 2024).

How the values were obtained:
HLA-A*24:02 = HLA-A*24:02 (Homo sapiens, UniProt P04439, D101N/D140Y/D185E/E176V/E190D/F33S/G103R/G107R/I119L/I121M/I306V/K335N/L105A/L180Q/L300P/N151K/N90K/Q86E/Q94H/R106L/R138H/R89G/T104I/T345S/V100E/W191G/Y123F); assay: MHC binding assay, UV-ligand exchange ELISA; conditions: peptide exchange yield, binding to HLA-A*24:02
Excerpt: (§1) Candidate peptides for T cell based therapies according to the present invention were further tested for their MHC binding capacity (affinity). The individual peptide-MHC complexes were produced by UV-ligand exchange, where a UV-sensitive peptide is cleaved upon UV-irradiation and exchanged with the peptide of interest as analyzed. Only peptide candidates that can effectively bind and stabilize the peptide-receptive MHC molecules prevent dissociation of the MHC complexes. To determine the yield of the exchange reaction, an ELISA was performed based on the detection of the light chain (β2m) of stabilized MHC complexes. The assay was performed as generally described in Rodenko et al. (Rodenko et al., 2006).
(§2) 96 well MAXISorp plates (NUNC) were coated over night with 2 μg/ml streptavidin in PBS at room temperature, washed 4× and blocked for 1 h at 37° C. in 2% BSA containing blocking buffer. Refolded HLA-A*02:01/MLA-001 monomers served as standards, covering the range of 15-500 ng/ml. Peptide-MHC monomers of the UV-exchange reaction were diluted 100-fold in blocking buffer. Samples were incubated for 1 h at 37° C., washed four times, incubated with 2 μg/ml HRP conjugated anti-82m for 1 h at 37° C., washed again and detected with TMB solution that is stopped with […]. Absorption was measured at 450 nm. Candidate peptides that show a high exchange yield (preferably higher than 50%, most preferred higher than 75%) are generally preferred for a generation and production of antibodies or fragments thereof, and/or T cell receptors or fragments thereof, as they show sufficient avidity to the MHC molecules and prevent dissociation of the MHC complexes.

[1] = system: HLA-A*01:01, HLA-A*02:01, HLA-A*03:01, HLA-A*24:02, HLA-B*07:02, HLA-B*08:01 and HLA-B*44:02; assay: HLA alleles the peptides bind to (Table 7); format: binding, human; conditions: allotype from the group HLA-A*01:01, HLA-A*02:01, HLA-A*03:01, HLA-A*24:02, HLA-B*07:02, HLA-B*08:01, HLA-B*44:02
Excerpt: However, due to similarities in binding pattern such as the relevant anchoring positions some peptides bind to more than one allele, such an overlap is most likely, but not limited to, HLA-A*01 binding peptides also binding to HLA-B*15, HLA-A*03 binding peptides also binding to HLA-A*11, HLA-B*07 binding peptides also binding to HLA-B*35 and HLA-B*51.

HLA-A*02:01 = HLA-A*02:01 (Homo sapiens, UniProt P04439, D140Y/D185E/D98H/E176V/E277Q/G131W/G231S/I119V/I121R/I166T/I218V/L300P/L318F/N151K/N90K/P208A/P217A/Q86G/Q94H/R138H/R169H/T345S); assay: MHC binding assay, UV-ligand exchange ELISA; conditions: peptide exchange yield, binding to HLA-A*02:01
Excerpt: as §1, §2

HLA-B*07:0 = HLA-B*07:0 (Homo sapiens, UniProt P01889); assay: MHC binding assay, UV-ligand exchange ELISA; conditions: peptide exchange yield, binding to HLA-B*07:0
Excerpt: as §1, §2

Row | Substance | Peptide exchange (HLA-A*24:02) | Binders (HLA alleles the peptides according to the invention bind to) [1] | Peptide exchange (HLA-A*02:01) | Peptide exchange (HLA-B*07:0)
1 | 3 (VYIASSFKI; listed as Homo sapiens) [compound 3] | ++++ (75% = ++++) | HLA-A*24:02 | – | –
2 | 4 (IQAPALLKV; listed as Homo sapiens) [compound 4] | – | HLA-A*02:01 | ++++ (≥75% = ++++) | –
3 | 6 (SHSLPAFTL; listed as Homo sapiens) [compound 6] | ++ (20% = ++) | HLA-A*24:02 | – | –
4 | 7 (IYIPTNSIYKF; listed as Homo sapiens) [compound 7] | ++++ (75% = ++++) | HLA-A*24:02 | – | –
5 | 9 (LLGVVSHSV; listed as Homo sapiens) [compound 9] | – | HLA-A*02:01 | ++++ (≥75% = ++++) | –
6 | 13 (LYDTVTHTF; listed as Homo sapiens) [compound 13] | ++++ (75% = ++++) | HLA-A*24:02 | – | –
7 | 14 (ILAPPQRISF; listed as Homo sapiens) [compound 14] | ++++ (75% = ++++) | HLA-A*24:02 | – | –
8 | 16 (NFHTLAQQLLF; listed as Homo sapiens) [compound 16] | ++++ (75% = ++++) | HLA-A*24:02 | – | –
9 | 31 (VFLLLPYPRF; listed as Homo sapiens) [compound 31] | ++++ (75% = ++++) | HLA-A*24:02 | – | –
10 | 33 (AYIPFPPLI; listed as Homo sapiens) [compound 33] | ++++ (75% = ++++) | HLA-A*24:02 | – | –
11 | 40 (LYQTTIELF; listed as Homo sapiens) [compound 40] | ++++ (75% = ++++) | HLA-A*24:02 | – | –
12 | 43 (VFIPSVINL; listed as Homo sapiens) [compound 43] | ++++ (75% = ++++) | HLA-A*24:02 | – | –
13 | 47 (LYIFTTRPF; listed as Homo sapiens) [compound 47] | ++++ (75% = ++++) | HLA-A*24:02 | – | –
14 | 49 (IYFHLNNWTI; listed as Homo sapiens) [compound 49] | ++++ (75% = ++++) | HLA-A*24:02 | – | –
15 | 62 (SFSLLLPYL; listed as Homo sapiens) [compound 62] | +++ (50% = +++) | HLA-A*24:02 | – | –
16 | 67 (GRFWLPFNF; listed as Homo sapiens) [compound 67] | ++ (20% = ++) | HLA-A*24:02 | – | –
17 | 69 (KYPTIICGF; listed as Homo sapiens) [compound 69] | ++++ (75% = ++++) | HLA-A*24:02 | – | –
18 | 76 (VQSGVPSRF; listed as Homo sapiens) [compound 76] | ++ (20% = ++) | HLA-A*24:02 | – | –
19 | 80 (IFDLSDPRF; listed as Homo sapiens) [compound 80] | ++ (20% = ++) | HLA-A*24:02 | – | –
20 | 87 (LHLNPGLSF; listed as Homo sapiens) [compound 87] | ++ (20% = ++) | HLA-A*24:02 | – | –
21 | 115 (LWEEKPVCL; listed as Homo sapiens) [compound 115] | ++ (20% = ++) | HLA-A*24:02 | – | –
22 | 116 (IYLTKSNLVNM; listed as Homo sapiens) [compound 116] | ++++ (75% = ++++) | HLA-A*24:02 | – | –
23 | 123 (TYLESSVRI; listed as Homo sapiens) [compound 123] | ++++ (75% = ++++) | HLA-A*24:02 | – | –

Row | Substance | Peptide exchange (HLA-A*24:02) | Binders (HLA alleles the peptides according to the invention bind to) [1] | Peptide exchange (HLA-A*02:01) | Peptide exchange (HLA-B*07:0)
24 | 132 (LYLETRSEF; listed as Homo sapiens) [compound 132] | ++++ (75% = ++++) | HLA-A*24:02 | – | –
25 | 133 (KFPPSASEF; listed as Homo sapiens) [compound 133] | ++++ (75% = ++++) | HLA-A*24:02 | – | –
26 | 158 (FQLSGPVTF; listed as Homo sapiens) [compound 158] | ++ (20% = ++) | HLA-A*24:02 | – | –
27 | 160 (EYLGSENVF; listed as Homo sapiens) [compound 160] | +++ (50% = +++) | HLA-A*24:02 | – | –
28 | 163 (LWALAIPSL; listed as Homo sapiens) [compound 163] | +++ (50% = +++) | HLA-A*24:02 | – | –
29 | 164 (SHSSPTVSF; listed as Homo sapiens) [compound 164] | ++ (20% = ++) | HLA-A*24:02 | – | –
30 | 165 (FYNPRPPLI; listed as Homo sapiens) [compound 165] | ++++ (75% = ++++) | HLA-A*24:02 | – | –
31 | 173 (IFTGRNAYF; listed as Homo sapiens) [compound 173] | ++++ (75% = ++++) | HLA-A*24:02 | – | –
32 | 177 (SYLKDHLSL; listed as Homo sapiens) [compound 177] | ++++ (75% = ++++) | HLA-A*24:02 | – | –
33 | 180 (QYLTYYPSF; listed as Homo sapiens) [compound 180] | ++++ (75% = ++++) | HLA-A*24:02 | – | –
34 | 183 (VFVISGSHLF; listed as Homo sapiens) [compound 183] | ++++ (75% = ++++) | HLA-A*24:02 | – | –
35 | 186 (SQIKSPVVF; listed as Homo sapiens) [compound 186] | + (10% = +) | HLA-A*24:02 | – | –
36 | 189 (IWRALGSLF; listed as Homo sapiens) [compound 189] | ++++ (75% = ++++) | HLA-A*24:02 | – | –
37 | 194 (VLYPSHSSF; listed as Homo sapiens) [compound 194] | ++ (20% = ++) | HLA-A*24:02 | – | –
38 | 195 (AWNESSAWLL; listed as Homo sapiens) [compound 195] | ++++ (75% = ++++) | HLA-A*24:02 | – | –
39 | 199 (RAPLPLLLL; listed as Homo sapiens) [compound 199] | – | – | – | +++ (≥50% = +++)
40 | 201 (VWILQKVNLAF; listed as Homo sapiens) [compound 201] | +++ (50% = +++) | HLA-A*24:02 | – | –
41 | 207 (LPALLRSL; listed as Homo sapiens) [compound 207] | – | – | – | ++++ (≥75% = ++++)
42 | 208 (YVGPTRLEL; listed as Homo sapiens) [compound 208] | – | – | – | ++++ (≥75% = ++++)
43 | 210 (ASRIQVILL; listed as Homo sapiens) [compound 210] | – | – | – | +++ (≥50% = +++)
44 | 214 (RPSPVRVAAL; listed as Homo sapiens) [compound 214] | – | – | – | ++++ (≥75% = ++++)
45 | 215 (TPLTRTTL; listed as Homo sapiens) [compound 215] | – | – | – | +++ (≥50% = +++)
